In the supplement of paper PMC10126150:
± gives the standard deviation of the averaged measurements.
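Further: ATP exposure 15 min at 22 °C before imaging.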

These sequences were tested on ATP (assay: switch fluorescence ratio, 500 uM ATP over buffer (Cy3 cluster intensity, sum of 5 cycles each) (fold (ratio)); higher = stronger signal-on switching upon ATP binding; sequences stand for … in TCGTCGGCAGCGTCAGATGTGTATAAGAGACAGTTTTTTTTTTTTTTTTTTTTTTTTT…TC). Conditions: aptamer strand: ATP DNA aptamer (quencher-CACCTGGGGGAGTATTGCGGAGGAAGG + anchor), 100 nM annealed; ATP concentration: 500 uM.
Procedure, shortened: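 Clusters with intensities outside 100-1000 RFU were excluded. The remaining Cy3-labelled switching-strand clusters on a modified Illumina MiSeq flow-cell had been annealed to 100 nM quencher-labelled ATP aptamer and imaged in selection buffer, then after 15 min with 500 uM ATP at 22 °C, for five cycles separated by NaOH stripping and re-annealing. The fluorescence ratio, averaged per switch-domain sequence, is each cluster's summed target-cycle Cy3 intensity over its summed buffer-cycle Cy3 intensity.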
CGGTTAAAAA showed a switch fluorescence ratio of 0.982 ± 0.066.
For TTACATTTGG, the switch fluorescence ratio was 0.9846 ± 0.0036.
For TTTAAAAGGC, the switch fluorescence ratio was 1.01 ± 0.028.
GAATGTGGGG was tested, and the switch fluorescence ratio was 0.982 ± 0.019.
CAAGGTCCGA gave a switch fluorescence ratio of 0.99445 ± 0.00086.
TGGGTATTTT showed a switch fluorescence ratio of 1.01 ± 0.026.
In the case of CGTTGGGGG, the switch fluorescence ratio is reported as 0.963 ± 0.029.
With AAAACGTTAC the switch fluorescence ratio was 1.68 ± 0.02.
Work on GGATTAGGTC yielded a switch fluorescence ratio of 1.02 ± 0.019.
ACAATGTCT gave a switch fluorescence ratio of 0.996 ± 0.014.
TTTAGATTGG was tested, and the switch fluorescence ratio was 0.9945 ± 0.0086.
For GCGGTTTTTT, the switch fluorescence ratio was 1.22 ± 0.35.
GTGGACGG gave a switch fluorescence ratio of 0.9733 ± 0.0022.
For GAAGGTGTTG, the switch fluorescence ratio was 1.036 ± 0.0084.
Work on GGGCCATTGG yielded a switch fluorescence ratio of 1 ± 0.018.
GTTTTGGGGT was tested, and the switch fluorescence ratio was 0.986 ± 0.013.
GTTGGGGGGC showed a switch fluorescence ratio of 0.992 ± 0.036.
For GAGGGTAATA, the switch fluorescence ratio was 1.01 ± 0.017.
Sequence CGCCTAACGA has a switch fluorescence ratio of 1.08 ± 0.024.
For CCGCTGGATA, the switch fluorescence ratio was 1.51 ± 0.18.
TGCGAATTCT gave a switch fluorescence ratio of 1.03 ± 0.011.
Sequence CATGCTGGGC has a switch fluorescence ratio of 1.0235 ± 0.00067.
Work on TTTCGGATGT yielded a switch fluorescence ratio of 0.984 ± 0.04.
ACGCGGCGAT was tested, and the switch fluorescence ratio was 1.08 ± 0.026.
With ATGAGTAAGG the switch fluorescence ratio was 0.991 ± 0.013.
With CGAAAAAGAT the switch fluorescence ratio was 1.04 ± 0.079.
Work on GGTTAAAGGT yielded a switch fluorescence ratio of 1.02 ± 0.026.
AGGCCCGGGC gave a switch fluorescence ratio of 0.958 ± 0.023.
With GCCGGGACGC the switch fluorescence ratio was 1.05 ± 0.049.
In the case of TTGGGAGGAT, the switch fluorescence ratio is reported as 1.12 ± 0.2.
Work on ATGGGACGGG yielded a switch fluorescence ratio of 1 ± 0.019.
For GGGGGATGCT, the switch fluorescence ratio was 0.975 ± 0.039.
Sequence TATGATCTTT has a switch fluorescence ratio of 1.029 ± 0.0052.
Work on AAGTCGTTCG yielded a switch fluorescence ratio of 0.989 ± 0.016.
In the case of CATGGCGGAG, the switch fluorescence ratio is reported as 1.03 ± 0.023.
In the case of GGGTCCCTTG, the switch fluorescence ratio is reported as 1 ± 0.026.
With TTCGGGGCAT the switch fluorescence ratio was 1.05 ± 0.097.
For CGTAAGTTTT, the switch fluorescence ratio was 0.98 ± 0.03.
TAGGGACGCA showed a switch fluorescence ratio of 1.16 ± 0.018.
With GAGGTGAAGG the switch fluorescence ratio was 1.04 ± 0.055.
For TAGTTTTTTG, the switch fluorescence ratio was 0.993 ± 0.053.
Work on GTTCTAAAAA yielded a switch fluorescence ratio of 1.02 ± 0.042.
Sequence TAGCTAGTCG has a switch fluorescence ratio of 1.01 ± 0.039.
TTATTGGTTT showed a switch fluorescence ratio of 1.048 ± 0.0096.
With TGCGTTATAA the switch fluorescence ratio was 1.02 ± 0.022.
For ATTTGAAGGT, the switch fluorescence ratio was 1.01 ± 0.018.
Sequence CGTTTGAGGA has a switch fluorescence ratio of 1.01 ± 0.03.
In the case of TGATACTTAG, the switch fluorescence ratio is reported as 1.061 ± 0.0084.
Work on GGGGAAGGAT yielded a switch fluorescence ratio of 1.05 ± 0.13.
With AGACTGGTAC the switch fluorescence ratio was 1.156 ± 0.0022.
CTTGACAGA gave a switch fluorescence ratio of 1.03 ± 0.024.
Work on AGGGGGAAGC yielded a switch fluorescence ratio of 1.02 ± 0.027.
Sequence ATCCGGACCC has a switch fluorescence ratio of 1.08 ± 0.1.
Work on GGTTAAGGGT yielded a switch fluorescence ratio of 0.9892 ± 0.0056.
AGTTGGTAG gave a switch fluorescence ratio of 1.02 ± 0.033.
TAATGAGGGA showed a switch fluorescence ratio of 1 ± 0.038.
AACTCCTAAG gave a switch fluorescence ratio of 1.03 ± 0.021.
In the case of CCAAGTGAC, the switch fluorescence ratio is reported as 1.26 ± 0.028.
Work on TTGAATCAAG yielded a switch fluorescence ratio of 1.01 ± 0.041.
CGGTGGGCGA was tested, and the switch fluorescence ratio was 0.987 ± 0.048.
GCAGGAAGGG showed a switch fluorescence ratio of 0.977 ± 0.019.
With GGTTTAAGGT the switch fluorescence ratio was 1.01 ± 0.02.
Sequence CTTATGGGGG has a switch fluorescence ratio of 1.03 ± 0.046.
For GCTAGGAGTA, the switch fluorescence ratio was 0.987 ± 0.0091.
CGTATTTTT showed a switch fluorescence ratio of 0.99 ± 0.018.
Sequence TAGAGTTATT has a switch fluorescence ratio of 1.01 ± 0.014.
Sequence TTTAGCTGT has a switch fluorescence ratio of 1.1 ± 0.17.
ACAGGAGTTT was tested, and the switch fluorescence ratio was 0.999 ± 0.01.
In the case of CGGAGCGCGT, the switch fluorescence ratio is reported as 0.991 ± 0.019.
For TTTTTAGGTC, the switch fluorescence ratio was 1.1 ± 0.21.
CACATGGTGT was tested, and the switch fluorescence ratio was 1.15 ± 0.02.
Sequence GGCATCGGAC has a switch fluorescence ratio of 1.04 ± 0.015.
GCATAGTCTG showed a switch fluorescence ratio of 1.038 ± 0.0042.
AACTAACGTG showed a switch fluorescence ratio of 1.3 ± 0.056.
With TCCGATGAGG the switch fluorescence ratio was 1.05 ± 0.074.
CAATGGTTTG gave a switch fluorescence ratio of 1 ± 0.018.
GGGCCACGGA was tested, and the switch fluorescence ratio was 1.01 ± 0.048.
Sequence CATAGTTGCG has a switch fluorescence ratio of 1.02 ± 0.04.
TGGCGGTTTT showed a switch fluorescence ratio of 1.005 ± 0.0077.
TTGGGGATTT was tested, and the switch fluorescence ratio was 0.997 ± 0.029.
TGGTTCGTTA gave a switch fluorescence ratio of 1 ± 0.05.
TAGTTCGGTG showed a switch fluorescence ratio of 0.988 ± 0.042.
CGTTACGTAG gave a switch fluorescence ratio of 1.05 ± 0.018.
TTCTTAGGGA gave a switch fluorescence ratio of 0.9863 ± 0.0054.
With GTTTTACATT the switch fluorescence ratio was 1.02 ± 0.021.
With CAATGCGGTA the switch fluorescence ratio was 0.976 ± 0.046.
TTTATGGGTA showed a switch fluorescence ratio of 1 ± 0.033.
For TTTCGAATAA, the switch fluorescence ratio was 0.986 ± 0.0099.
AATAGGTTAG was tested, and the switch fluorescence ratio was 1.001 ± 0.0075.
For GTGTCAGCGG, the switch fluorescence ratio was 0.9762 ± 0.0088.
For TTGTAAAATA, the switch fluorescence ratio was 0.978 ± 0.058.
GGATATACTT gave a switch fluorescence ratio of 1.03 ± 0.024.
With GGAAAAATCG the switch fluorescence ratio was 1.013 ± 0.0051.
ACCCTGGAAC was tested, and the switch fluorescence ratio was 1.045 ± 0.0039.
GGACAGAGGT was tested, and the switch fluorescence ratio was 1 ± 0.044.
In the case of AGTTACCGGG, the switch fluorescence ratio is reported as 0.998 ± 0.044.
In the case of AAAAATTCAG, the switch fluorescence ratio is reported as 0.987 ± 0.045.
TTTCAACGAT was tested, and the switch fluorescence ratio was 1 ± 0.029.
GATGGACCTT was tested, and the switch fluorescence ratio was 1.08 ± 0.11.
TTCCAATAAG was tested, and the switch fluorescence ratio was 1.01 ± 0.02.
In the case of AATGCGGTAT, the switch fluorescence ratio is reported as 1.01 ± 0.023.
With ACTTCGAGCG the switch fluorescence ratio was 1.08 ± 0.02.
TTATTTTGGT showed a switch fluorescence ratio of 1.01 ± 0.035.
Sequence AGCTTATGTT has a switch fluorescence ratio of 0.985 ± 0.017.
With AAAGGGGATG the switch fluorescence ratio was 1.01 ± 0.016.
ATGTTTTTAG showed a switch fluorescence ratio of 0.991 ± 0.018.
Work on TACGGGGCCT yielded a switch fluorescence ratio of 1.04 ± 0.064.
GCTCTGGGGT was tested, and the switch fluorescence ratio was 1.02 ± 0.033.
Work on AATTGTTTCA yielded a switch fluorescence ratio of 0.974 ± 0.016.
TATGTTTTTT showed a switch fluorescence ratio of 0.997 ± 0.031.
Sequence TAATAGTTT has a switch fluorescence ratio of 1.04 ± 0.033.
Sequence CAGGTAGGTA has a switch fluorescence ratio of 0.977 ± 0.014.
With CCGAGTATGT the switch fluorescence ratio was 1.19 ± 0.034.
Sequence TGTTCACTTT has a switch fluorescence ratio of 1.04 ± 0.036.
Sequence GAAGATAGGG has a switch fluorescence ratio of 0.998 ± 0.011.
Sequence AGACGTCGGG has a switch fluorescence ratio of 1.016 ± 0.0031.
In the case of CAAGAGAATG, the switch fluorescence ratio is reported as 0.999 ± 0.037.
For TAGAAGTTTG, the switch fluorescence ratio was 0.976 ± 0.026.
For AAATGGAGTA, the switch fluorescence ratio was 1.01 ± 0.007.
Sequence TATTTTGACG has a switch fluorescence ratio of 0.9151 ± 0.0046.
TTCTTGTCGG gave a switch fluorescence ratio of 0.984 ± 0.027.
Sequence GGGTGGTGCC has a switch fluorescence ratio of 0.997 ± 0.056.
TTTATAATAT was tested, and the switch fluorescence ratio was 1.03 ± 0.015.
TTATTAGTAG gave a switch fluorescence ratio of 1.002 ± 0.0049.
With GGGTATGTGG the switch fluorescence ratio was 0.972 ± 0.032.
Work on CATTTATGGG yielded a switch fluorescence ratio of 1.015 ± 0.0031.
In the case of TTTGCTGTTG, the switch fluorescence ratio is reported as 0.965 ± 0.037.
CGGTTGTAGC gave a switch fluorescence ratio of 1 ± 0.021.
ACGTAGACGT was tested, and the switch fluorescence ratio was 1.02 ± 0.018.
Work on CGCTGTCACG yielded a switch fluorescence ratio of 1.0556 ± 0.00068.
For TTAATGGGTG, the switch fluorescence ratio was 1.05 ± 0.015.
Work on GTTGCTATTT yielded a switch fluorescence ratio of 1.0045 ± 0.00071.
Work on GAACATCGGC yielded a switch fluorescence ratio of 1.036 ± 0.0022.
Work on TGGGGGACGC yielded a switch fluorescence ratio of 1.08 ± 0.045.
GGGCGGGGCG showed a switch fluorescence ratio of 0.938 ± 0.063.
With ACCCTGTTGG the switch fluorescence ratio was 1.01 ± 0.029.
With TTTTGTTGTA the switch fluorescence ratio was 0.996 ± 0.024.
Work on GTTCTTGGGA yielded a switch fluorescence ratio of 1.03 ± 0.077.
GTGAAAAACT gave a switch fluorescence ratio of 1.03 ± 0.033.
CCTGGGGGTG showed a switch fluorescence ratio of 1.14 ± 0.074.
GTTGTAAGGG showed a switch fluorescence ratio of 0.998 ± 0.04.
In the case of GTCAGTGGGT, the switch fluorescence ratio is reported as 0.9682 ± 0.0079.
For GGGGGTCCCG, the switch fluorescence ratio was 1 ± 0.012.
ATAATAAGCT was tested, and the switch fluorescence ratio was 1.016 ± 0.0073.
Work on AAAGTGTGCG yielded a switch fluorescence ratio of 1.01 ± 0.023.
GGTGGGGTCC showed a switch fluorescence ratio of 0.987 ± 0.011.
In the case of AAAGATGGCT, the switch fluorescence ratio is reported as 0.98 ± 0.025.
In the case of AAAAAAAGGG, the switch fluorescence ratio is reported as 1.01 ± 0.047.
TAATGGTTGC was tested, and the switch fluorescence ratio was 0.996 ± 0.014.
ATGGTTAGGT showed a switch fluorescence ratio of 1.02 ± 0.029.
GATGGTTAAC gave a switch fluorescence ratio of 1.01 ± 0.0045.
In the case of TGAGTATTGG, the switch fluorescence ratio is reported as 0.99 ± 0.027.
For TGAGGTGCGT, the switch fluorescence ratio was 0.995 ± 0.033.
AGGAAGGGGA was tested, and the switch fluorescence ratio was 0.9683 ± 0.0089.
AATAACCAGT gave a switch fluorescence ratio of 1.02 ± 0.016.
Sequence CAAAAAGAGC has a switch fluorescence ratio of 0.976 ± 0.015.
In the case of TGTTGGTGTA, the switch fluorescence ratio is reported as 0.994 ± 0.01.
